Legend:
[1] = biological target: T1, prostate-specific membrane antigen (PSMA) (human, UniProt Q04609 1-750); assay: flow cytometry on PSMA+ prostate cancer cells (FIG. 1)
T1 construct: whole, on cells; also called glutamate carboxypeptidase II; N-acetylated alpha-linked acidic dipeptidase 1

[2] = biological target: T1, prostate-specific membrane antigen …; assay: flow cytometry on PSMA+ C4-2 cells (FIG. 2B)
Procedure: (§1) A typical experiment would label 300,000 cells per well with a range of 200 nM to 0.1 nM binding molecule in 100 ul of FACS buffer (PBS+2% normal goat serum+2% fetal bovine serum+0.1% sodium azide) on ice, followed by washes and incubation with fluorescently-labeled secondary antibody, goat anti-human IgG (1:400 dilution of Invitrogen #11013=5 ug/ml). After washing secondary antibody off cells, cells were incubated with 7-Aminoactinomycin D (7-AAD) staining solution (BD Pharmingen™ cat#559925) (6 ul of 7AAD to 100 ul of FACS Buffer) for 20 minutes. Signal from bound molecules was detected using a FACSCalibur™ flow cytometer (BD Biosciences) and analyzed by FlowJo flow cytometry analysis software. 7-AAD+ cells were excluded from analysis. Nonlinear regression analysis to determine EC50s was performed in GraphPad Prism® graphing and statistics software.

[3] = biological target: T1, prostate-specific membrane antigen …; assay: flow cytometry on PSMA+ C4-2 cells (FIG. 2A)
Procedure: as §1

T1 sequence (Q04609 whole entry): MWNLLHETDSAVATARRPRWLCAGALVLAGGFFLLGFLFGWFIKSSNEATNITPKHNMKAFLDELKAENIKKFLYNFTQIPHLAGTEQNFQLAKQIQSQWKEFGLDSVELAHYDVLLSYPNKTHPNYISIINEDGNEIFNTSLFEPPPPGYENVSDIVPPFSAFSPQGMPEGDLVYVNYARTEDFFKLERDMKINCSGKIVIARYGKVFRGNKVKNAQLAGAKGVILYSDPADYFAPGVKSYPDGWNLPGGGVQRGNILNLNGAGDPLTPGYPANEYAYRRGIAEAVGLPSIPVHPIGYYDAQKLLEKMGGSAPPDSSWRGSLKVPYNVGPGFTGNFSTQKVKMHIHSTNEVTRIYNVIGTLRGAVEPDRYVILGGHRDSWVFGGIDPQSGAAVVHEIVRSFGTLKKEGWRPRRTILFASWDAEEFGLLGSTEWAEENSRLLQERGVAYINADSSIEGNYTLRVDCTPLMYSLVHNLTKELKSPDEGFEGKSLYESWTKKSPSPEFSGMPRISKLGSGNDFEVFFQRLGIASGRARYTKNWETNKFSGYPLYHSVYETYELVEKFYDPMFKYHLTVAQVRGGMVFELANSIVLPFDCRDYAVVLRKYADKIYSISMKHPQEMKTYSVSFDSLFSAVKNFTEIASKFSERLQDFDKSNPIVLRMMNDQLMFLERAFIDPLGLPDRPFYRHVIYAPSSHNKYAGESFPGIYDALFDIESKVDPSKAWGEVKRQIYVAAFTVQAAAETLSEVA

B1: TSC085 chimeric SMIP (murine 107-1A4 VL-VH scFv-human Fc) (Fc fusion)
chain: DVQITQSPSYLAASPGETITINCRASKSISKYLAWYQEKPGKANKLLIHSGSTLQSGIPSRFSGSGSGTDFTLTISSLEPEDFAMYYCQQHIEYPWTFGGGTKLEIKRAGGGGSGGGGSSGGGGSEIQLQQSGPELVKPGASVKMSCKASGYTFTDYYMHWVKQNNGESLEWIGYFNPYNDYTRYNQNFNGKATLTVDKSSSTAYMQLNSLTSEDSAFYYCARSDGYYDAMDYWGQGTSVTVSSSEPKSSDKTHTCPPCPAPEAAGAPSVFLFPPKPKDTLMISRTPEVTCVVVDVSHEDPEVKFNWYVDGVEVHNAKTKPREEQYNSTYRVVSVLTVLHQDWLNGKAYACAVSNKALPAPIEKTISKAKGQPREPQVYTLPPSRDELTKNQVSLTCLVKGFYPSDIAVEWESNGQPENNYKTTPPVLDSDGSFFLYSKLTVDKSRWQQGNVFSCSVMHEALHNHYTQKSLSLSPGK
notes: scFv-hinge-Fc
[1]
  binding result: binds

B2: TSC092 chimeric SMIP (murine 107-1A4 VH-VL scFv-human Fc) (Fc fusion)
chain: EIQLQQSGPELVKPGASVKMSCKASGYTFTDYYMHWVKQNNGESLEWIGYFNPYNDYTRYNQNFNGKATLTVDKSSSTAYMQLNSLTSEDSAFYYCARSDGYYDAMDYWGQGTSVTVSSGGGGSGGGGSSGGGGSDVQITQSPSYLAASPGETITINCRASKSISKYLAWYQEKPGKANKLLIHSGSTLQSGIPSRFSGSGSGTDFTLTISSLEPEDFAMYYCQQHIEYPWTFGGGTKLEIKRASSEPKSSDKTHTCPPCPAPEAAGAPSVFLFPPKPKDTLMISRTPEVTCVVVDVSHEDPEVKFNWYVDGVEVHNAKTKPREEQYNSTYRVVSVLTVLHQDWLNGKAYACAVSNKALPAPIEKTISKAKGQPREPQVYTLPPSRDELTKNQVSLTCLVKGFYPSDIAVEWESNGQPENNYKTTPPVLDSDGSFFLYSKLTVDKSRWQQGNVFSCSVMHEALHNHYTQKSLSLSPGK
notes: scFv-hinge-Fc
[1]
  binding result: binds

B3: TSC194 Scorpion (huVL-VH#2 107-1A4 scFv-Fc-Cris7 scFv) (bispecific antibody)
chain: DIQMTQSPSAMSASVGDRVTITCRASKSISKYLAWFQQKPGKVPKLRIHSGSTLQSGVPSRFSGSGSGTEFTLTISSLQPEDFATYYCQQHIEYPWTFGQGTKVEIKRGGGGSGGGGSGGGGSQVQLVQSGAEVKKPGASVKVSCKASGYTFTDYYMHWVRQAPGQGLEWMGYFNPYNDYTRYAQKFQGRVTMTRDTSISTAYMELSSLRSDDTAVYYCARSDGYYDAMDYWGQGTTVTVSSSEPKSSDKTHTCPPCPAPEAAGAPSVFLFPPKPKDTLMISRTPEVTCVVVDVSHEDPEVKFNWYVDGVEVHNAKTKPREEQYNSTYRVVSVLTVLHQDWLNGKAYACAVSNKALPAPIEKTISKAKGQPREPQVYTLPPSRDELTKNQVSLTCLVKGFYPSDIAVEWESNGQPENNYKTTPPVLDSDGSFFLYSKLTVDKSRWQQGNVFSCSVMHEALHNHYTQKSLSLSPGQRHNNSSLNTGTQMAGHSPNSQVQLVQSGGGVVQPGRSLRLSCKASGYTFTRSTMHWVRQAPGKGLEWIGYINPSSAYTNYNQKFKDRFTISADKSKSTAFLQMDSLRPEDTGVYFCARPQVHYDYNGFPYWGQGTPVTVSSGGGGSGGGGSGGGGSAQDIQMTQSPSSLSASVGDRVTMTCSASSSVSYMNWYQQKPGKAPKRWIYDSSKLASGVPARFSGSGSGTDYTLTISSLQPEDFATYYCQQWSRNPPTFGGGTKLQITR
notes: also called humanized SCORPION molecule
[2]
  binding result: binds

B4: TSC199 Scorpion (huVL-VH#1 107-1A4 scFv-Fc-Cris7 scFv) (bispecific antibody)
chain: DIQMTQSPSAMSASVGDRVTITCRASKSISKYLAWFQQKPGKVPKLRIHSGSTLQSGVPSRFSGSGSGTEFTLTISSLQPEDFATYYCQQHIEYPWTFGQGTKVEIKRGGGGSGGGGSGGGGSEVQLVQSGAEVKKPGATVKISCKASGYTFTDYYMHWVQQAPGKGLEWMGYFNPYNDYTRYAEKFQGRVTITADTSTDTAYMELSSLRSEDTAVYYCARSDGYYDAMDYWGQGTTVTVSSSEPKSSDKTHTCPPCPAPEAAGAPSVFLFPPKPKDTLMISRTPEVTCVVVDVSHEDPEVKFNWYVDGVEVHNAKTKPREEQYNSTYRVVSVLTVLHQDWLNGKAYACAVSNKALPAPIEKTISKAKGQPREPQVYTLPPSRDELTKNQVSLTCLVKGFYPSDIAVEWESNGQPENNYKTTPPVLDSDGSFFLYSKLTVDKSRWQQGNVFSCSVMHEALHNHYTQKSLSLSPGQRHNNSSLNTGTQMAGHSPNSQVQLVQSGGGVVQPGRSLRLSCKASGYTFTRSTMHWVRQAPGKGLEWIGYINPSSAYTNYNQKFKDRFTISADKSKSTAFLQMDSLRPEDTGVYFCARPQVHYDYNGFPYWGQGTPVTVSSGGGGSGGGGSGGGGSAQDIQMTQSPSSLSASVGDRVTMTCSASSSVSYMNWYQQKPGKAPKRWIYDSSKLASGVPARFSGSGSGTDYTLTISSLQPEDFATYYCQQWSRNPPTFGGGTKLQITR
notes: as for B3
[2]
  binding result: binds

B5: TSC188 humanized SMIP (107-1A4 VL-VH#1 scFv-Fc) (Fc fusion)
chain: DIQMTQSPSAMSASVGDRVTITCRASKSISKYLAWFQQKPGKVPKLRIHSGSTLQSGVPSRFSGSGSGTEFTLTISSLQPEDFATYYCQQHIEYPWTFGQGTKVEIKRGGGGSGGGGSGGGGSEVQLVQSGAEVKKPGATVKISCKASGYTFTDYYMHWVQQAPGKGLEWMGYFNPYNDYTRYAEKFQGRVTITADTSTDTAYMELSSLRSEDTAVYYCARSDGYYDAMDYWGQGTTVTVSSSEPKSSDKTHTCPPCPAPEAAGAPSVFLFPPKPKDTLMISRTPEVTCVVVDVSHEDPEVKFNWYVDGVEVHNAKTKPREEQYNSTYRVVSVLTVLHQDWLNGKAYACAVSNKALPAPIEKTISKAKGQPREPQVYTLPPSRDELTKNQVSLTCLVKGFYPSDIAVEWESNGQPENNYKTTPPVLDSDGSFFLYSKLTVDKSRWQQGNVFSCSVMHEALHNHYTQKSLSLSPGK
notes: scFv-hinge-Fc
[3]
  binding result: binds

B6: TSC189 humanized SMIP (107-1A4 VL-VH#2 scFv-Fc) (Fc fusion)
chain: DIQMTQSPSAMSASVGDRVTITCRASKSISKYLAWFQQKPGKVPKLRIHSGSTLQSGVPSRFSGSGSGTEFTLTISSLQPEDFATYYCQQHIEYPWTFGQGTKVEIKRGGGGSGGGGSGGGGSQVQLVQSGAEVKKPGASVKVSCKASGYTFTDYYMHWVRQAPGQGLEWMGYFNPYNDYTRYAQKFQGRVTMTRDTSISTAYMELSSLRSDDTAVYYCARSDGYYDAMDYWGQGTTVTVSSSEPKSSDKTHTCPPCPAPEAAGAPSVFLFPPKPKDTLMISRTPEVTCVVVDVSHEDPEVKFNWYVDGVEVHNAKTKPREEQYNSTYRVVSVLTVLHQDWLNGKAYACAVSNKALPAPIEKTISKAKGQPREPQVYTLPPSRDELTKNQVSLTCLVKGFYPSDIAVEWESNGQPENNYKTTPPVLDSDGSFFLYSKLTVDKSRWQQGNVFSCSVMHEALHNHYTQKSLSLSPGK
notes: scFv-hinge-Fc
[3]
  binding result: binds

Source: patent US20140161800A1 (APTEVO RESEARCH AND DEVELOPMENT, published 2014)
